Values of other authors as cited in PMC2879464.
Read-outs that look alike come from different tables or passages of the source.

Columns and labels:
cortactin (Homo sapiens) [1] = target: cortactin (Homo sapiens) (UniProt Q14247)
cortactin (Homo sapiens) [2] = target: cortactin (Homo sapiens) (UniProt Q14247); remark: listed apart in the source

Chain of UniProt Q14247 (Q14247 whole entry): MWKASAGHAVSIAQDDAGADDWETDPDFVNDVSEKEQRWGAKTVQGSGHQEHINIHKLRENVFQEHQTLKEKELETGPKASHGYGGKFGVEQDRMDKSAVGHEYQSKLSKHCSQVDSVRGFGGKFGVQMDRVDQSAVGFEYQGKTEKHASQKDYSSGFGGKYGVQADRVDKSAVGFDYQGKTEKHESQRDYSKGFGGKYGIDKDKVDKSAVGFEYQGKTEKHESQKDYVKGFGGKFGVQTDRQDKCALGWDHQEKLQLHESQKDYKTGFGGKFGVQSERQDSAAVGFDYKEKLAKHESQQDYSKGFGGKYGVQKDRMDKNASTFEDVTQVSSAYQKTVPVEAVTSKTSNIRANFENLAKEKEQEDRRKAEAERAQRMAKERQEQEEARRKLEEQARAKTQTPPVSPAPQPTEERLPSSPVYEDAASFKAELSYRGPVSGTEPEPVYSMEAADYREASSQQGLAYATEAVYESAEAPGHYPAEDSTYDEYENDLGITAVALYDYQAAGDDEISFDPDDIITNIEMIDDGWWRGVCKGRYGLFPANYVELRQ

| Kd (cortactin (Homo sapiens) [1]) [nM] | Kd (cortactin (Homo sapiens) [2]) [nM] | Substance |
| --- | --- | --- |
| 250 | – | nmMLCK2 (from UniProt Q15746) |
| – | 1000 | nmMLCK1 (from UniProt Q15746) |
